Among the data in patent US20260217854A1 are Kd values, retold here.

The experiment addresses coil 2 domain of TMCC3 protein (UniProt Q9ULS5). Kind of experiment: ELISA on TMCC3 domain proteins.

B1: mouse anti-TMCC3 8D6 monoclonal antibody (antibody, V domains shown)
VH: EIQLQQSGGELVKPGASVKISCTASGYSFTGYNMNWVKQSHGKSPEWIGNINPYYGSTSYNQKFKGKATLTVDKSSSTAYMQLNSLTSEDSAVYYCARWLGLGYAMDYWGQGTSVTVSS
VL: DIVLTQSPASLVVSLGQGATISCRASKSVSPSGYSSMHWYQQKPGQPPKLLIYLASNLESGVPARFSGSGSGTDFTLNIHPVEEEDAATYYCQHSRELPWTFGGGTKLEIKR
Broadly, the Kd is the concentration at which binding is half-saturated. Read a high Kd as weaker binding. In the case of B1, the Kd was 0.01 nM. This lies in the picomolar range.
